Measured values from the Human Domainome abundance scans (Beltran et al. 2025).

B1: Tripartite motif-containing protein 6, residues 93 to 134; numbered along this chain, Q9C030 (parent)
chain: KAVLCADHGEKLQLFCQEDGKVICWLCERSQEHRGHHTFLVE

Variants of: B1
Assay: abundance fitness (aPCA) (normalised: wild type 0, dead -1); higher = more abundant; growth selection in yeast, the domain comes from the species named
Details: Homo sapiens

Abundance fitness of substitutions, site by site:
G35: I -0.377 | W -0.377 | S -0.096 | D 0.022 | P -0.366
I23: N -0.091 | G -0.346 | S -0.579 | W -0.483 | E -0.581 | A -0.463
Q31: A -0.121 | W -0.593 | D -0.228 | M -0.057 | Y -0.371 | C -0.095 | V 0.004 | G -0.083
K21: E 0.047 | Y -0.035 | L -0.283 | R 0.086 | Q -0.358 | T -0.183 | V 0.086 | D -0.29 | M -0.284 | W -0.403
V41: C -0.165 | M -0.143 | I -0.246 | Q 0.259 | T 0.064
A6: P -0.056 | K -0.011 | L -0.215 | I -0.321 | G -0.196 | W -0.48 | N -0.306 | T -0.242 | Y -0.19 | Q -0.087
L40: W -0.112 | C -0.188 | E 0.009 | N 0.115 | G 0.052 | K -0.154 | M 0.207 | H -0.062
L4: Q -0.272 | N 0.224 | D -0.223 | A -0.165 | C -0.189 | W -0.199 | R -0.082 | F 0.141 | M 0.195
K1: W -0.722 | T -0.255 | S -0.142 | V -0.191 | A -0.273 | N -0.296 | Q -0.32
L12: R 0.05 | C 0.092 | Q -0.008 | A 0.204 | F -0.11 | M 0.195 | S 0.202
L14: C -0.198 | W 0.218 | T -0.087 | V -0.154 | K 0.065 | D -0.087 | M 0.071 | A -0.186 | P -0.151 | N -0.153
R34: F 0.058 | H 0.102 | A -0.007 | V 0.035 | P -0.386 | G -0.161 | Q -0.041 | N -0.058 | C -0.14
C5: H -0.768 | Y -0.602 | F -0.871 | N -0.922 | L -0.999 | V -0.839 | K -0.789 | W -1.06 | Q -0.812 | P -0.777
V22: R 0.065 | Q -0.04 | E -0.127 | W -0.554 | G -0.019
V3: L -0.437 | T 0.005 | P -0.485 | K 0.046 | M 0.141 | H -0.349 | I -0.135 | A -0.007 | W -0.353 | S -0.003
T38: G -0.177 | E -0.265
F39: P -0.487 | N 0.041 | A 0.165 | K 0.435 | R 0.19 | T 0.111 | V 0.117 | M 0.01
E10: S -0.319 | F -0.01 | R -0.019 | D -0.075 | Y -0.031 | A -0.185 | Q -0.1 | C -0.163 | H -0.442 | G -0.165
H36: K -0.558 | M -0.606 | E -0.355 | G -0.442 | Q -0.303 | Y -1.03 | W -0.781 | S -0.365
R29: S -0.289 | F -0.458 | Y -0.24 | Q -0.164 | D -0.268 | K -0.05 | V -0.299 | A -0.331 | I -0.207 | G -0.189 | M -0.121
E18: R -0.302 | A -0.428 | Q -0.146 | L -1 | T -0.038 | H -0.265 | W -0.537 | K -0.349
E28: V -0.19 | G -0.197 | T 0.059 | D -0.101 | W -0.319 | C -0.494
A2: E 0.195 | S 0.045 | P -0.071 | R 0.067 | V 0.065 | N 0.066 | W -0.04 | D -0.031 | M 0.264 | G 0.198
D7: E 0.048 | S 0.006 | G -0.291 | C 0.055 | T 0.165 | A 0.095 | I -0.034 | P -0.297 | F -0.38 | M 0.091
C24: Q -0.748 | T -0.664 | A -0.886 | R -1.02 | L -1.1 | I -0.753 | V -1.19 | D -0.822
W25: L -0.025 | N 0.11 | K 0.211 | Q 0.12 | S 0.068 | E 0.047 | C 0.026 | M 0.135 | T 0.094 | F 0.023 | G -0.01 | P -0.008 | V -0.033 | H 0.12 | A 0.118
S30: F -0.575 | E -0.148 | W -0.686 | T -0.15 | R -0.168 | M 0.026 | Q 0.022 | N -0.142 | C -0.104
G20: V -0.431 | P -0.338 | S -0.331 | H -0.225 | T -0.142 | R -0.111 | K -0.284 | D 0.202 | L 0.117 | Q -0.053
F15: N -0.418 | A -0.248 | R -0.112 | C 0.001 | M -0.029 | E -0.126 | T -0.292 | P -0.209 | G -0.087 | S -0.212
H33: A -0.392 | P -0.771 | R -0.364 | T -0.685
C27: P -0.536 | G -0.66 | S -1.1 | T -0.882 | V -1.32 | Q -0.969
E42: Y -0.421 | C -0.426 | A -0.852
C16: M -0.584 | E -0.174 | V -0.451 | N -0.298 | D -0.218
D19: I -0.888 | R -0.584 | S -0.391 | C 0.627
Q17: C -0.024 | Y -0.406 | T -0.086 | K 0.248 | W -0.335 | A -0.109 | H -0.235 | V -0.373 | G -0.341 | P -0.297 | R -0.043 | S -0.316 | M -0.605 | F -0.512
H37: F 0.117 | W -0.503 | V -0.265 | L -0.431
L26: R 0.084 | K 0.104 | S -0.059 | Y -0.015 | F -0.517 | E 0.082 | D -0.05 | C -0.155 | I -0.172 | G -0.042 | A -0.029 | V -0.05 | H -0.079
Q13: A 0.004 | N 0.21 | P -0.256 | Y -0.217 | G -0.071 | I -0.086
G9: T -0.407 | V -0.575 | E -0.179 | N 0.332 | R -0.066 | L -0.238 | S -0.042 | D -0.087
H8: W -1 | K -0.419 | I -0.74 | V -0.852 | L -1.08 | Q -0.275 | C -0.584 | G -0.691 | R -0.77 | F -1.09 | N -0.807 | E -0.518
K11: S 0.155 | F -0.113 | D 0.142 | Q -0.3 | N -0.007 | R -0.042 | G -0.012 | I -0.073 | A 0.029 | E 0.103 | T -0.101
